Source: publication doi:10.1101/2019.12.19.882902

Key:
[1] = target: AF647-TFIIB (TFIIB-SNAP);TBP;TFIIF;RNA polymerase II (human;human;human;human, UniProt Q00403;P20226;P35269;P13984;P24928;P30876;P19387;O15514;P19388;P61218;P62487;P52 …, |||); assay: EMSA
[2] = target: TFIIB (untagged);TBP;TFIIF;RNA polymerase II (human;human;human;human, UniProt Q00403;P20226;P35269;P13984;P24928;P30876;P19387;O15514;P19388;P61218;P62487;P52 …, |||); assay: EMSA
Chain of TFIIB (untagged);TBP;TFIIF;RNA polymerase II (Q00403 whole entry, chain 1 of 2): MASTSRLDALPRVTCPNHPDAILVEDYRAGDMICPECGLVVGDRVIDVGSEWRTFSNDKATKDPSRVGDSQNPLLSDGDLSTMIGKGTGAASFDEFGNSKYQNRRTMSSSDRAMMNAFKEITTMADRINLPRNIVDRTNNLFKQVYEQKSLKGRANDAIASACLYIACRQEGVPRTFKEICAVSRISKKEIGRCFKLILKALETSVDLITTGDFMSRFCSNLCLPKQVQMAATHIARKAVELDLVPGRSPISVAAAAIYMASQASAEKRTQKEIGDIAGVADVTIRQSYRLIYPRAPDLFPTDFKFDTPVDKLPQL
Chain of TFIIB (untagged);TBP;TFIIF;RNA polymerase II (P20226 whole entry, chain 2 of 2): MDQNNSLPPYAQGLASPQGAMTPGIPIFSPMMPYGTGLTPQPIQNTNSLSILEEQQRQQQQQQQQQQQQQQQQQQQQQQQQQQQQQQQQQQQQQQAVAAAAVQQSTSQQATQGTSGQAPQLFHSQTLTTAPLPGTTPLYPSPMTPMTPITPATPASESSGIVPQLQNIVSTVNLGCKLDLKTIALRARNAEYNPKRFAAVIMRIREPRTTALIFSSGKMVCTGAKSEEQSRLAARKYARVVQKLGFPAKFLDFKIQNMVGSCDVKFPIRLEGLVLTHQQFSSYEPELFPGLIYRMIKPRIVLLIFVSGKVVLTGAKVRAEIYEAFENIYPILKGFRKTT

Chain of AF647-TFIIB (TFIIB-SNAP);TBP;TFIIF;RNA polymerase II (Q00403 whole entry, chain 1 of 2): as the sequence (Q00403 whole entry, chain 1 of 2) above
Chain of AF647-TFIIB (TFIIB-SNAP);TBP;TFIIF;RNA polymerase II (P20226 whole entry, chain 2 of 2): as the sequence (P20226 whole entry, chain 2 of 2) above

B1: three piece AdMLP DNA (-40 to +37), pre-melted bubble (dsDNA)
DNA 1: AAGGGGGGCTATAAAAGGGGGTGGGGGCGCGAAGCAGGAGTAGACTATCTTTAATCACTA
DNA 2: CCTGAGGTTAGTGTGAGTAGTGATTAAAGATAGTGATGAGGACGAACGCGCCCCCACCCCCTTTTATAGCCCCCCTT
DNA 3: CTCACACTAACCTCAGG
[1]
  binding result: binds
[2]
  binding result: binds
